Experimental data as given in the supplement of paper PMC5998384.

Columns and labels:
[1] = test system: HeLa Kyoto; assay: melting temperature (median over replicates), in situ; higher = more thermally stable
[2] = test system: HeLa Kyoto; assay: solubility in G1/S (NP-40 vs SDS abundance) (log2 ratio); higher = more soluble; details: cell cycle stage: G1/S
[3] = test system: HeLa Kyoto; assay: solubility change mitosis vs G1/S (difference of NP-40 vs SDS log2 ratios) (log2 ratio difference); higher = more soluble in mitosis
[4] = test system: HeLa Kyoto; assay: thermal stability score vs G1/S (z-score of summed log2 fold changes over temperatures); higher = more thermally stable than in G1/S
[5] = cell cycle stage: early G1 (4.5 h after nocodazole release)
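Throughout, for melting temperature (median over replicates), in situ: HeLa Kyoto cells synchronized by double thymidine or nocodazole block, proteins quantified by TMT10plex mass spectrometry, three independent biological replicates.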
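Throughout, for solubility change mitosis vs G1/S (difference of NP-40 vs SDS log2 ratios): synchronized HeLa Kyoto cells (double thymidine block for G1/S, nocodazole release for mitosis), protein amounts in NP-40 versus SDS lysates quantified by mass spectrometry, three biological replicates.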
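Throughout, for solubility in G1/S (NP-40 vs SDS abundance): HeLa Kyoto cells arrested at G1/S by double thymidine block, proteins quantified by TMT10plex mass spectrometry in mild NP-40 versus SDS extracts, three biological replicates.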
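Throughout, for thermal stability score vs G1/S (z-score of summed log2 fold changes over temperatures): synchronized HeLa Kyoto cells, proteins quantified by TMT10plex mass spectrometry, three biological replicates, mitosis taken 0.5 h after nocodazole release, G1/S directly after double thymidine block.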

Sequence	melting temperature ([1]; cell cycle stage: G1/S)	melting temperature ([1]; cell cycle stage: mitosis)	solubility in G1/S (log2) [2]	solubility change mitosis (log2) [3]	thermal stability score [4, 5]	thermal stability score ([4]; cell cycle stage: mitosis)
MTDSKYFTTNKKGEIFELKAELNNEKKEKRKEAVKKVIAAMTVGKDVSSLFPDVVNCMQTDNLELKKLVYLYLMNYAKSQPDMAIMAVNSFVKDCEDPNPLIRALAVRTMGCIRVDKITEYLCEPLRKCLKDEDPYVRKTAAVCVAKLHDINAQMVEDQGFLDSLRDLIADSNPMVVANAVAALSEISESHPNSNLLDLNPQNINKLLTALNECTEWGQIFILDCLSNYNPKDDREAQSICERVTPRLSHANSAVVLSAVKVLMKFLELLPKDSDYYNMLLKKLAPPLVTLLSGEPEVQYVALRNINLIVQKRPEILKQEIKVFFVKYNDPIYVKLEKLDIMIRLASQANIAQVLAELKEYATEVDVDFVRKAVRAIGRCAIKVEQSAERCVSTLLDLIQTKVNYVVQEAIVVIRDIFRKYPNKYESIIATLCENLDSLDEPDARAAMIWIVGEYAERIDNADELLESFLEGFHDESTQVQLTLLTAIVKLFLKKPSETQELVQQVLSLATQDSDNPDLRDRGYIYWRLLSTDPVTAKEVVLSEKPLISEETDLIEPTLLDELICHIGSLASVYHKPPNAFVEGSHGIHRKHLPIHHGSTDAGDSPVGTTTATNLEQPQVIPSQGDLLGDLLNLDLGPPVNVPQVSSMQMGAVDLLGGGLDSLVGQSFIPSSVPATFAPSPTPAVVSSGLNDLFELSTGIGMAPGGYVAPKAVWLPAVKAKGLEISGTFTHRQGHIYMEMNFTNKALQHMTDFAIQFNKNSFGVIPSTPLAIHTPLMPNQSIDVSLPLNTLGPVMKMEPLNNLQVAVKNNIDVFYFSCLIPLNVLFVEDGKMERQVFLATWKDIPNENELQFQIKECHLNADTVSSKLQNNNVYTIAKRNVEGQDMLYQSLKLTNGIWILAELRIQPGNPNYTLSLKCRAPEVSQYIYQVYDSILKN [AP2B1]	51.6 °C	52 °C	0.198	-0.0379	-1.91	3.3
MTHWFHRNPLKATAPVSFNYYGVVTGPSASKICNDLRSSRARLLELFTDLSCNPEMMKNAADSYFSLLQGFINSLDESTQESKLRYIQNFKWTDTLQGQVPSAQQDAVFELISMGFNVALWYTKYASRLAGKENITEDEAKEVHRSLKIAAGIFKHLKESHLPKLITPAEKGRDLESRLIEAYVIQCQAEAQEVTIARAIELKHAPGLIAALAYETANFYQKADHTLSSLEPAYSAKWRKYLHLKMCFYTAYAYCYHGETLLASDKCGEAIRSLQEAEKLYAKAEALCKEYGETKGPGPTVKPSGHLFFRKLGNLVKNTLEKCQRENGFIYFQKIPTEAPQLELKANYGLVEPIPFEFPPTSVQWTPETLAAFDLTKRPKDDSTKPKPEEEVKPVKEPDIKPQKDTGCYIS [BROX]	49.6 °C	49.8 °C	0.511	-0.114	-0.298	0.407
MKSRFSTIDLRAVLAELNASLLGMRVNNVYDVDNKTYLIRLQKPDFKATLLLESGIRIHTTEFEWPKNMMPSSFAMKCRKHLKSRRLVSAKQLGVDRIVDFQFGSDEAAYHLIIELYDRGNIVLTDYEYVILNILRFRTDEADDVKFAVRERYPLDHARAAEPLLTLERLTEIVASAPKGELLKRVLNPLLPYGPALIEHCLLENGFSGNVKVDEKLETKDIEKVLVSLQKAEDYMKTTSNFSGKGYIIQKREIKPSLEADKPVEDILTYEEFHPFLFSQHSQCPYIEFESFDKAVDEFYSKIEGQKIDLKALQQEKQALKKLDNVRKDHENRLEALQQAQEIDKLKGELIEMNLQIVDRAIQVVRSALANQIDWTEIGLIVKEAQAQGDPVASAIKELKLQTNHVTMLLRNPYLLSEEEDDDVDGDVNVEKNETEPPKGKKKKQKNKQLQKPQKNKPLLVDVDLSLSAYANAKKYYDHKRYAAKKTQKTVEAAEKAFKSAEKKTKQTLKEVQTVTSIQKARKVYWFEKFLWFISSENYLIIGGRDQQQNEIIVKRYLTPGDIYVHADLHGATSCVIKNPTGEPIPPRTLTEAGTMALCYSAAWDARVITSAWWVYHHQVSKTAPTGEYLTTGSFMIRGKKNFLPPSYLMMGFSFLFKVDESCVWRHQGERKVRVQDEDMETLASCTSELISEEMEQLDGGDTSSDEDKEEHETPVEVELMTQVDQEDITLQSGRDELNEELIQEESSEDEGEYEEVRKDQDSVGEMKDEGEETLNYPDTTIDLSHLQPQRSIQKLASKEESSNSSDSKSQSRRHLSAKERREMKKKKLPSDSGDLEALEGKDKEKESTVHIETHQNTSKNVAAVQPMKRGQKSKMKKMKEKYKDQDEEDRELIMKLLGSAGSNKEEKGKKGKKGKTKDEPVKKQPQKPRGGQRVSDNIKKETPFLEVITHELQDFAVDDPHDDKEEQDLDQQGNEENLFDSLTGQPHPEDVLLFAIPICAPYTTMTNYKYKVKLTPGVQKKGKAAKTALNSFMHSKEATAREKDLFRSVKDTDLSRNIPGKVKVSAPNLLNVKRK [NEMF]	50.8 °C	50.2 °C	-0.354	-0.0231	-0.477	-1.01
